Experiments:
Test in all cases: cell-based or functional assay
[1] = biological target: human Y4 receptor (human) (UniProt P50391)
[2] = biological target: human Y1 receptor (human) (UniProt P25929)
[3] = biological target: human Y2 receptor (human) (UniProt P49146)
Chain of human Y2 receptor (human) (P49146 whole entry): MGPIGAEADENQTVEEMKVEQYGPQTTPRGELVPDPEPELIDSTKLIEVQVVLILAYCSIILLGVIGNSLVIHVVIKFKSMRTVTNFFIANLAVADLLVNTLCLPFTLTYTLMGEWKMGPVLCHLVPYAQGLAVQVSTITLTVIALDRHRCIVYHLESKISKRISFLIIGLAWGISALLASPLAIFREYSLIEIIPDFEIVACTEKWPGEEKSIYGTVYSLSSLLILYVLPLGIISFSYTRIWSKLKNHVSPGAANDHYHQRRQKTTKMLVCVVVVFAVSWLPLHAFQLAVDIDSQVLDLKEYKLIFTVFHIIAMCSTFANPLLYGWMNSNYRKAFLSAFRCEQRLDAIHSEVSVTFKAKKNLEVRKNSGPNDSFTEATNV

Chain of human Y1 receptor (human) (P25929 whole entry): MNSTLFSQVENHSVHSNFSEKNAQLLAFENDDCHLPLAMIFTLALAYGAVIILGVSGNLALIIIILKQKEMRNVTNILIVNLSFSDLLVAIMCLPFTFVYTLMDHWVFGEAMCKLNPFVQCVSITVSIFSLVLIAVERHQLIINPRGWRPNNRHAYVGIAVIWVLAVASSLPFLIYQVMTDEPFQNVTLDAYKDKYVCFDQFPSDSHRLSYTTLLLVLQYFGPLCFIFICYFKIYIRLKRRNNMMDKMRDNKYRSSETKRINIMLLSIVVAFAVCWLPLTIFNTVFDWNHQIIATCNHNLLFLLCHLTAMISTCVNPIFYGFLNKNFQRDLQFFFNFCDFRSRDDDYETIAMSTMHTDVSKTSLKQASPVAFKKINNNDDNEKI
Chain of human Y4 receptor (human) (P50391 whole entry): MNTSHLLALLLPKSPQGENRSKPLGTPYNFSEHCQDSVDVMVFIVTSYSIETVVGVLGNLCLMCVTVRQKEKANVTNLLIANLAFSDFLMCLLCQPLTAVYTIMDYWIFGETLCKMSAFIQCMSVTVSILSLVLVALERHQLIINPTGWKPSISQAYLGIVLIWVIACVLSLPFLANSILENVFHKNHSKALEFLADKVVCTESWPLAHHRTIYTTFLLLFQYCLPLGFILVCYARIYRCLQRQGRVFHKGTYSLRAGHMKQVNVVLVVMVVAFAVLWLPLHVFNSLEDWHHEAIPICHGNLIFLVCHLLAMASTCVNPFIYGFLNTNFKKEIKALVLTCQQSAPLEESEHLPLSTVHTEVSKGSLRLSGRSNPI

Substance	EC50, Actone functional potency assay [1]	EC50, Actone functional potency assay [2]	EC50, Actone functional potency assay [3]
4-N{alpha}-(3-Methylbutanoyl)-7-N{Epsilon}-[2-[2-[2-[[2-[2-[2-[[(4S)-4-carboxy-4-[[(4S)-4-carboxy-4-(16-sulfohexadecanoylamino)butanoyl]amino]butanoyl]amino]-ethoxy]ethoxy]acetyl]amino]ethoxy]ethoxy]acetyl]-[Lys7,Gln18,Trp30,NMeArg35]hPYY(4-36) (peptide)	> 1000 nM	–	–
4-N{alpha}-(hexanoyl)-7-N{Epsilon}-2-[2-[2-[[2-[2-[2-[[(4S)-4-carboxy-4-(16-sulfohexadecanoylamino)butanoyl]amino]ethoxy]ethoxy]acetyl]amino]ethoxy]-ethoxy]acetyl]-[Arg4,Lys7,Gln18,Trp30,NMeArg35]hPYY(4-36) (peptide)	–	> 1000 nM	–
7-N{Epsilon}-[2-[2-[2-[[2-[2-[2-[[2-[2-[2-[[2-[2-[2-[4-[16-(1H-tetrazol-5- yl)-hexadecanoylsulfamoyl]butanoylamino]ethoxy]ethoxy]acetyl]amino]ethoxy]-ethoxy]acetyl]amino]ethoxy]ethoxy]acetyl]amino]ethoxy]ethoxy]acetyl]-[Lys7,Gln18,Trp30,NMeArg35]hPYY(3-36) (peptide)	–	> 1000 nM	–
7-N{Epsilon}-[2-[2-[2-[[2-[2-[2-[[(4S)-4-carboxy-4-(16-sulfohexadecanoylamino)-butanoyl]amino]ethoxy]ethoxy]acetyl]amino]ethoxy]ethoxy]acetyl]-[Arg4,Lys7,Gln18,Trp30]hPYY(3-36) (peptide)	> 1000 nM	> 1000 nM	1 nM
7-N{Epsilon}-[2-[2-[2-[[2-[2-[2-[[(4S)-4-carboxy-4-(16-sulfohexadecanoylamino)-butanoyl]amino]ethoxy]ethoxy]acetyl]amino]ethoxy]ethoxy]acetyl]-[Lys7,Gln18,Trp30,NMeArg35]hPYY(3-36) (peptide)	–	> 1000 nM	–
